Results from patent US20220185894A1 (F STAR THERAPEUTICS, published 2022).

Columns and labels:
[1] = molecular target: T1, cynomolgus LAG-3 expressed on cells (cynomolgus monkey, UniProt P18627 24-525 (human entry)); assay: flow cytometry on HEK cells expressing cynomolgus LAG-3
T1 construct: also called cLAG-3; cyno LAG-3
T1 chain: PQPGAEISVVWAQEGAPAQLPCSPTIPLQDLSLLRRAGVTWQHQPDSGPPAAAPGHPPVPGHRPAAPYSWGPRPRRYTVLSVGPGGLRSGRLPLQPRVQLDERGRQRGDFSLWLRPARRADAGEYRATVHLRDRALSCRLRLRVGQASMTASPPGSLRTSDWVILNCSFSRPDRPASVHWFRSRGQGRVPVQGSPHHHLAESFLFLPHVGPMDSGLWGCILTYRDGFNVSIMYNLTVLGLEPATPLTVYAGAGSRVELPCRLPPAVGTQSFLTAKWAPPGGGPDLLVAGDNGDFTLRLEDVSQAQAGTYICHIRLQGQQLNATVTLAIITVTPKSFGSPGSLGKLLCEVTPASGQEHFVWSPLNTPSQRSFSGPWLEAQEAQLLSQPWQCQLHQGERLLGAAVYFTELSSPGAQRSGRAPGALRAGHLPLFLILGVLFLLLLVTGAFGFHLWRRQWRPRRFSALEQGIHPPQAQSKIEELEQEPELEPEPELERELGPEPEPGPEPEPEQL
Description: (§1) The affinity of the mAb² (all containing the LALA mutation) for cell expressed human or cynomolgus LAG-3 was determined using flow cytometry. HEK cells expressing human or cynomolgus LAG-3 grown in DMEM (Life Technologies, 61965-026) containing 10% FBS (Life Technologies, 10270-1-6), 100 μg/ml Hygromycin B (Melford Laboratories Ltd, Z2475), 15 μg/ml Blasticidin (Melford Laboratories Ltd, B1105) and 1 μg/ml Doxycyclin (Sigma, D9891) were detached from tissue culture flasks using cell dissociation buffer (Life Technologies, 13151-014) and seeded in V-bottom 96-well plates (Costar, 3897) at 2×10⁵ cells/well. The plates were centrifuged at 1500 rpm for 3 min at 4° C. to pellet the cells. A dilution series of the mAb² (or control mAb) were incubated with the cells in a 100 μl volume for 1 h at 4° C. The plates were washed and secondary antibody (Anti-human Fc-488, Jackson ImmunoResearch, 109-546-098) was diluted 1:1000 in PBS and 100 μl was added to the cells for 30 min at 4° C. (plates were kept in the dark). The plates were washed and then cells were resuspended in 100 μl PBS containing 1 μg/ml DAPI (Biotium, 40043). The plates were read using Canto II flow cytometer (BD Bioscience). Dead cells were excluded and the fluorescence in the FITC channel (488 nm/530/30) was measured. The data was fit using log (agonist) vs response in GraphPad Prism Software. The plates were read on a BD FACSCanto II cytometer (BD Biosciences) and the data analysed using FlowJo.

[2] = molecular target: T2, human LAG-3 expressed on cells (human, UniProt P18627 23-525); assay: flow cytometry on HEK cells expressing human LAG-3
T2 construct: also called hLAG-3; DO11.10 hLAG-3
T2 sequence: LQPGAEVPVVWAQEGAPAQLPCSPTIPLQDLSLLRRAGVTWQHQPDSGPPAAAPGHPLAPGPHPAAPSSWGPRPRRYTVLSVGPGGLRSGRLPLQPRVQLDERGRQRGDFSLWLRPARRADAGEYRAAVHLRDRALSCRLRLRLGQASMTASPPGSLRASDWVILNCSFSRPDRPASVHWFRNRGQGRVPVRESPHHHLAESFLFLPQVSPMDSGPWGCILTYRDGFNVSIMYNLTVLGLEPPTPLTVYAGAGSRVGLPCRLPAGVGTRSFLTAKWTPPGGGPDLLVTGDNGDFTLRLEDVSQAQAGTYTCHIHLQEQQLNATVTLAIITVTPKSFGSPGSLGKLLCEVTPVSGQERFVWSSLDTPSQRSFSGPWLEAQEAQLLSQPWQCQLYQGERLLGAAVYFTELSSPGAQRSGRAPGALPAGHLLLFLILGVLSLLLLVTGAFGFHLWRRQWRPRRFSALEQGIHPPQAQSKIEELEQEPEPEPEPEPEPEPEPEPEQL
Description: as §1

B1: anti-human LAG-3/PD-L1 mAb2 FS18-7-9/84G09 with LALA mutation (bispecific antibody, human IgG1, kappa, L234A L235A)
heavy: EVQLVESGGGLVQPGRSLRLSCAASGFTFDDYAMHWVRQTPGKGLEWVSGISWKSNIIGYADSVKGRFTISRDNAKNSLYLQMNSLRAEDTALYYCARDITGSGSYGWFDPWGQGTLVTVSSASTKGPSVFPLAPSSKSTSGGTAALGCLVKDYFPEPVTVSWNSGALTSGVHTFPAVLQSSGLYSLSSVVTVPSSSLGTQTYICNVNHKPSNTKVDKKVEPKSCDKTHTCPPCPAPEAAGGPSVFLFPPKPKDTLMISRTPEVTCVVVDVSHEDPEVKFNWYVDGVEVHNAKTKPREEQYNSTYRVVSVLTVLHQDWLNGKEYKCKVSNKALPAPIEKTISKAKGQPREPQVYTLPPSWDEPWGEDVSLTCLVKGFYPSDIAVEWESNGQPENNYKTTPPVLDSDGSFFLYSKLTVPYDRWVWPDEFSCSVMHEALHNHYTQKSLSLSPG
light: DIQMTQSPSSLSASVGDRVTITCRASQSISSYLNWYQQKPGKAPKPLIYVASSLQSGVPSSFSGSGSGTDFTLTISSLQPEDFATYYCQQSYSNPITFGQGTRLEIKRTVAAPSVFIFPPSDEQLKSGTASVVCLLNNFYPREAKVQWKVDNALQSGNSQESVTEQDSKDSTYSLSSTLTLSKADYEKHKVYACEVTHQGLSSPVTKSFNRGEC
notes: also called FS18-7-09/84G09LALA; FS18-7-9/84G09 LALA
With B1 the EC50 [1] was 29.9 nM, the “fold better binding (EC50) than control antibody 25F7” value [1] was at least 2 fold and the EC50 [2] was 3.18 nM.
